Data on 1 molecule can be found in patent US20230167458A1, “FORSKOLIN-INDUCIBLE PROMOTERS AND HYPOXIA-INDUCIBLE PROMOTERS” (ASKLEPIOS BIOPHARMACEUTICAL, INC., priority 2020, published 2023).

One data set has as its system CHO-GS-KSV1 cell line. Put plainly: SEAP expression in stably transfected CHO-GS-KSV1, forskolin or NKH477 induction. The conditions noted are these: stable CHO-GS-KSV1, SEAP, forskolin or NKH477. Type of data set: cell-based, chinese hamster. The protocol: The forskolin-inducible promoters were then tested in a stably transfected CHO-GS-KSV1 cell line.
• CD-CHO media (Life technologies, CAT #10743029) • Corning 125 mL Polycarbonate Erlenmeyer Flask with Vent Cap (CAT #734-1885). • Gene Pulser® Electroporation Cuvettes, 0.4 cm gap (BioRad, CAT #165-2088) • Gene Pulser Xcell Total System (BioRad, CAT, #1652660) • GS-vector DNA ([…] in 100 μL TE buffer) linearised with Sca1 • Suspension cultures of CHOK1SV GS-KO host cells.
Cell suspensions of 6×10^5 cells per mL were incubated on an orbital shaker set at 8% CO2, 20% O2, 37° C., 85% relative humidity and 140 rpm overnight. 2.86×10^7 cells were centrifuged at 200 g for 3 minutes. Media was then aspirated and cell pellet resuspended in 2 mL fresh CD-CHO media to obtain a concentration of 1.43×10^7 cells per mL. 700 μL of cell suspension was added to each of two electroporation cuvettes each containing […] of linearised DNA in 100 μL of sterile TE buffer (Thermofisher, 12090015). Each cuvette was electroporated, delivering a single pulse of 300V, […] with resistance to infinity. Immediately after delivery of pulse electroplated cells were transferred to Erlenmeyer 125 mL flask containing 20 mL of CD-CHO media pre-warmed to 37° C. Electroporated cells from two cuvettes are combined into a single 125 mL flask to generate one pool of cells. Cells are cultured on an orbital shaker set at 8% CO2, 20% O2, 37° C., 85% relative humidity and 140 rpm. Cells are transferred to fresh CD-CHO media 24 hours after transfection and cell cultures monitored and given fresh CD-CHO media every 2-4 days. Usually after about 10-14 days cell numbers will be high enough to start passaging.
The transfected DNA was the pXC-17.4 expression vector (Lonza Biologics plc) where one of the promoter constructs (or a control promoter (CMV-IE) have been cloned upstream of the secreted alkaline phosphatase (SEAP) gene, which had been cloned into the multiple cloning site within the vector expression cassette. Promoters were closed into the pXC-17.4 vector using Gibson assembly. The pXC-17.4 expression vector is designed for making stable cell lines in the CHO-GSK1SV cell line as it contains the […] gene which has been knocked out of the cell line. Therefore, selection of cells in glutamine drop-out medium will select for cells that have stably integrated the plasmid.
The responsiveness of the RTV-019 promoter to different concentrations of forskolin and […] was tested in the stably transfected CHO-GS-KSV1 cell line. To this end, the stably transfected CHO-GS cells were seeded at 500,000 cells/ml and allowed to grow for 24 hrs. At this point the cells were induced by addition of the respective concentrations of forskolin and NKH477 and SEAP expression was measured as described below after 24 hours.
The promoter activity and inducibility of FMP-02, FORCYB-001, RTV-017, FORCSV-10, FOR-CMC-009, FLP-01 and RTV-019 were also tested in the stably transfected CHO-GS-KSV1 cell line. To this end, the stably transfected CHO-GS cells were seeded at 500,000 cells/ml and allowed to grow for 24 hrs. At this point the cells were exposed to […] forskolin or […] NKH477 for 24 hours. After this point, the SEAP activity in the medium was assessed as described below.
SEAP Reporter Gene Assay, chemiluminescent (Roche, CAT #11 779 842 001) was used to measure SEAP activity as per the manufacturer's protocol. All reagents and samples were fully pre-equilibrated at room temperature. Culture supernatant was collected from the stably transfected CHO-GS at the specific time points (0 h and 24 h). The supernatant was diluted 1:4 in dilution buffer and heat treated at 65° C. for 30 minutes. The heat-treated sample was then centrifuged for 30 s at maximum speed. 50 μl of the heat-treated sample was then added to 5 μl of inactivation buffer and incubated for 5 min at room temperature. 50 μl of substrate reagent was then added and incubated for 10 min at room temperature. […]

The subject of data set [1] is Huh7 human liver cell line. Put plainly: Luciferase expression from promoters in pAAV vector (with ITRs) in Huh7, forskolin or NKH477 induction. Details: fold induction with forskolin: dose or concentration left out as unconfirmed.
Procedure: The forskolin-inducible promoters RTV-017, RTV-019 and FORCYB1 were then used to drive expression of luciferase in a pAAV vector in the Huh7 human liver cell line. […] This experiment was performed to investigate the effect of the Inverted Terminal Repeats (ITRs) on the activity of the promoters.
The cells were seeded, transfected and induced as described above. Luciferase expression was measured as described above. In this experiment, the cells were induced by using 20 pM forskolin or 7.2 pM of the water soluble derivative NKH477.
The subject of a further data set is HEK293-F. Put plainly: Luciferase time course after forskolin induction, transient transfection of suspension HEK293-F. It counts as cell-based, human. The settings on record: 20 µM forskolin. The protocol:
The tested promoters were synthesised directly upstream of the ATG of PM-RQ plasmid and the suspension cell lines were transiently transfected with the PM-RQ plasmid.
40 ml of cells were grown in a 250 ml vented Erlenmeyer flask (Sigma-Aldrich CLS431144) at 37° C., 20% O2, 8% CO2 with agitation at 100 rpm. Cells were seeded as described in the manufacturer's instructions (300,000 cells/ml). HEK293-F were obtained from Thermofisher, R79007.
One day before transfection, the cells were counted using a haemocytometer and split to 500,000 cells/ml.
On the day of transfection, the cells are seeded to 1,000,000 cells/ml in 500 μl of appropriate medium (Freestyle 293 expression medium, 12338002) in a 24 well plate. […] of DNA per well was then added to 10 μl of OptiMem medium (Thermofisher; 11058021) and incubated for 5 minutes at room temperature.
Concurrently, 0.625 μl of Max reagent (Thermofisher, 16447100) was made up to 10 μl by addition of OptiMem and incubated for 5 minutes at room temperature. After this incubation, both mixes were added to the same tube and incubated at room temperature for 25-30 minutes. […]
24 hours after transfection, the promoters were induced by addition of […] forskolin and luciferase activity was measured 0, 3, 5 and 24 hours after induction. Luciferase activity was measured as previously described.

B1: RTV-019: synthetic forskolin-inducible promoter, SEQ ID NO: 44; 3× ATF6, 4× AP1(1) and 3× HRE1 TFBS and CMV-MP (nucleic acid)
DNA: TGACGTGCTGATGATGCGTAGCTAGTAGTTGACGTGCTGATGATGCGTAGCTAGTAGTTGACGTGCTGATGATGCGTAGCTAGTAGTTGAGTCAGATGATGCGTAGCTAGTAGTTGAGTCAGATGATGCGTAGCTAGTAGTTGAGTCAGATGATGCGTAGCTAGTAGTTGAGTCAGATGATGCGTAGCTAGTAGTCTGCACGTAGATGATGCGTAGCTAGTAGTCTGCACGTAGATGATGCGTAGCTAGTAGTCTGCACGTAGATGATGCGTAGCTAGTAGTGCAGTTAGCGTAGCTGAGGTACCGTCGACGATATCGGATCCAGGTCTATATAAGCAGAGCTCGTTTAGTGAACCGTCAGATCGCCTAGATACGCCATCCACGCTGTTTTGACCTCCATAGAAGATCGCCACC
modifications: Synp-RTV-019
notes: 3× ATF6, 4× AP1(1) and 3× HRE1 TFBS and CMV-MP
As for B1, the “relative rank of promoter strength” value in the data set with CHO-GS-KSV1 cell line is reported as “strongest”. Besides, in data set [1] (Huh7), the “fold induction with forskolin” value is listed as 98 fold and the “luciferase activity without induction (background)” value is “low background activity”. Further, the “fold induction with NKH477” value in data set [1] (Huh7, 7.2 pM NKH477) was determined as 86 fold. Besides, the “luciferase activity following induction” value in data set [1] (Huh7, or 7.2 pM NKH477) is “high activity”. In addition, the “relative rank of promoter (fold induction/strength)” value in the data set with HEK293-F is given as “strongest”.
